Measured values as given in IntAct's records for PubMed 15665853.

B1: Spindle assembly abnormal protein 5 (Caenorhabditis elegans), Q20010 (parent)
chain: MNNYDDLPCSIYFKKPTVQEFVDQPRVFEDSEVPAFQEVLQLPQERTKPPVPSTQPIVAAVEVAKKKSCLSAPKPRKEPPSHPALRQKTVAFGKTVNVSQTVEGTSRNSKKVLASTMSAQNTTTTEEQAAENWRDAMKTELQTIRTEIQEETARRQEELNAQNLVKMQELMSNFFQKITIPKQQAIEPVEKDKENFHESPRQSRQQKPASKIASAREVIKRDGVIPPEALTIIEQRLRSDPMFRQQIDNVLADAECDANRAAYSPPPPMSEVRYGSGVNPALMRETLTVERSIRYDNGLASIDSRQWTNERRDNRAPDSYRTYEPDQPCHSLYQKGQSISYYPSEAAGKTTARNNRTGYYVEDSSDHEEDVVVNKRGQNYHEQAVPETPAERERRIREKYARRK
partner: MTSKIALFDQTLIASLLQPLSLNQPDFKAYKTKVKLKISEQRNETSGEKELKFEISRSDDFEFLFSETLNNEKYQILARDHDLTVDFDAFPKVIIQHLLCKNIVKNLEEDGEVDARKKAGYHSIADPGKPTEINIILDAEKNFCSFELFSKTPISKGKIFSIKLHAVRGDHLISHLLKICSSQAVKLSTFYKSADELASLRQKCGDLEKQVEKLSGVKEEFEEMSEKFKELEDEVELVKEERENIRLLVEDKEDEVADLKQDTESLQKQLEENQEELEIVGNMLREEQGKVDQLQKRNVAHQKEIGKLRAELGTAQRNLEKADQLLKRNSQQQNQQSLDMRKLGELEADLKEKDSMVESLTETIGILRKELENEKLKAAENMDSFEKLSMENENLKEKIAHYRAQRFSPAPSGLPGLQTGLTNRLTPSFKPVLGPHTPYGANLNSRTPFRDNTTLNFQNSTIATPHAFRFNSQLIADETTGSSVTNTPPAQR

Variants of: B1
Settings: with sas6_caeel sas-6, O62479
With MNNYDDLPCSIYFKKPTVQEFVDQPRVFEDSEVPAFQEVLQLPQERTKPPVPSTQPIVAAVEVAKKKSCLSAPKPRKEPPSHPALRQKTVAFGKTVNVSQTVEGTSRNSKKVLASTMSAQNTTTTEEQAAENWRDAMKTELQTIRTEIQEETARRQEELNAQNLVKMQELMSNFFQKITIPKQQAIEPVEKDKENFHESPRQSRQQKPASKIASAREVIKRDGVIPPEALTIIEQRLRSDPMFRQQIDNVLADAECDANRAAYSPPPPMSEVRYGSGVNPALMRETLTVERSIRYDNGLASIDSRQWTNERRDNRAPDSYRTYEPDQPCHSLYQKGQSISYYPSEAAGKTTARNNRTGYYVEDSSDHEEDVVVNKRGQNYHEQAVPETPAERERRICEKYARRK [R397C] the “effect of a mutation on the interaction” value was “decreasing interaction”.
